The text below walks through data of patent US20240247042A1, “GLUCAGON LIKE PEPTIDE COMPOUNDS” (Novartis AG, priority 2021, published 2024).

Where two headings read alike, the source gives them in different places.

Experiment [1] has as its target T1, human GLP1R (hGLP1R) (Homo sapiens, UniProt P43220). Briefly: Human GLP1R β-arrestin recruitment assay (PathHunter). The format is cell-based. The arrangement: GeneArt (insert) 93-0164 (CHO-K1-EA parental cells); 93-0491 (pCMV PK vector bundle); host or cells: PathHunter CHO-K1-EA parental cells, single clone 1. For orientation: Arrestin recruitment assays detect the binding of arrestin to an activated receptor.
Target sequence in this assay (P43220 24-463): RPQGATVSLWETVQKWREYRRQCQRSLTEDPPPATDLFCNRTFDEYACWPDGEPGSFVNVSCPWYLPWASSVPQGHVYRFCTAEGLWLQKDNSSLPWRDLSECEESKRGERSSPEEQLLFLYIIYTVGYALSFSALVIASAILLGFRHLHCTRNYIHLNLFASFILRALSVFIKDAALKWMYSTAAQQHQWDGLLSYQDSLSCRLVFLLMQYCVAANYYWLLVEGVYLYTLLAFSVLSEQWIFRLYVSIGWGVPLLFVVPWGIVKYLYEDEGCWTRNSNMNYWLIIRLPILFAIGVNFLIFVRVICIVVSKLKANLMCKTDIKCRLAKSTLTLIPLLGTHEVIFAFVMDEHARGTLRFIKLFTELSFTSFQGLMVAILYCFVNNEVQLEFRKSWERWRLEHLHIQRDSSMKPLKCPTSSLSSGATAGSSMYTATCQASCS
Target sequence in this assay (P32121 whole entry partner): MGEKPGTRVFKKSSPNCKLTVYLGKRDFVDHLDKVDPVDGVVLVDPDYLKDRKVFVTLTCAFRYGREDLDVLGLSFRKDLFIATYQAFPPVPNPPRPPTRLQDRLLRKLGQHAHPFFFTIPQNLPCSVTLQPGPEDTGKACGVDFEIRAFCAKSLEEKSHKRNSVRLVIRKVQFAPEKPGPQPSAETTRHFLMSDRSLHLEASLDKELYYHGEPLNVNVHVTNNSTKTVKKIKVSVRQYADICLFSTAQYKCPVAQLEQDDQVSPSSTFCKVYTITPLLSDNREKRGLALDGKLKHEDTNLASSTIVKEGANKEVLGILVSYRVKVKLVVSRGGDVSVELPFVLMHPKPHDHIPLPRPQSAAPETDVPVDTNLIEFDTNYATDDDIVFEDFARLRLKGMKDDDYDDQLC
Description: The extent to which agonists recruited β-arrestin was measured using the PathHunter® β-arrestin assay (DiscoverX). This assay measures binding of β-arrestin to the receptor using an enzyme complementation approach. […] When β-arrestin is recruited to the receptor the enzyme becomes active and generates luminescence in the presence of a chemiluminescent substrate (PathHunter® Detection Kit, DiscoverX cat #93-0001). Luminescence can be measured on a relevant detector. […] The following day, agonists were prepared at 5 times the final required concentration. To generate triplicate dose response curves, compounds were serially diluted 3-fold in assay buffer (HBSS, 10 mM Hepes and 0.1% BSA), then added to the cell assay plate to a final volume of 25 μL and final top concentrations starting at 3 μM or less, depending on the compound. […] The plate was incubated at 37° C., 5% CO2 with humidity for 2 h after adding the compounds to the cells. […] The plate was incubated for an additional hour in the dark at RT. […] Curve fitting for EC50 determinations was performed using GraphPad Prism. The 4-parameter logistic model, Hill slope was used: Y=Bottom+(Top−Bottom)/(1+10^((Log EC50−X)*Hill Slope)), where Y is the functional response; X is the compound concentration; bottom is A0 or the minimum value (at 0 dose); top is Ainf or the maximum value (at infinite dose); EC50 is the point of inflection (i.e., the point on the sigmoid shaped curve halfway between A0 and Ainf). The EC50 value was calculated in μM.

Experiment [2] deals with T2, human GLP1R (Homo sapiens, UniProt P43220). Nature of the experiment: Human GLP1R DERET recycling assay. The format is cell-based.
T2 sequence (P43220 24-463): as the sequence (P43220 24-463) above
Description: The extent to which agonists internalize or allow recycling of the human GLP1R was determined based on an optimized version of a RealTime FRET-based ‘DERET’ (Dissociation Enhanced Resonance Energy Transfer) assay. The technology relies on labeling of the SNAP-tagged GPCR with a SNAP-Lumi-Terbium (donor fluorophore, Cisbio, cat #SSNPTBD). The compounds are incubated with the cells over-expressing the GPCR of interest in the presence of an excess of fluorescein (acceptor fluorophore). When the GPCR is on the cell surface, the donor signal is quenched by the acceptor and the donor/acceptor ratio is low. As the GPCR internalizes, the donor signal is no longer quenched, and the acceptor is no longer excited so the donor/acceptor ratio increases. The addition of an excess of antagonist blocks further receptor internalization, allowing the receptor to recycle back to the membrane leading to a subsequent reduction in the donor/acceptor ratio. […] To generate triplicate dose response curves, compounds were serially diluted 3-fold in assay buffer, then added to the cell assay plate to a final volume of 40 μL and final top concentrations starting at 3 μM or less (depending on the case). […] EC0 wells with buffer only were also included. The plate FRET fluorescence was measured immediately using a Perkin Elmer Envision with LANCE/DELFIA D400 single mirror, excitation filter X320, and emission filters M615_203 (donor emission) and M515 (acceptor emission), and then measured every 30 min. […] Plates were kept at 37° C. between reads. Data was expressed as the ratio of donor/acceptor emissions using Microsoft Excel and plotted in GraphPad Prism.
Using this model, we determined a T1/2 rate at which the receptor recycled back to the membrane. We also determined a maximum percentage of receptor recycled as a proportion of the amount internalized initially.
The lower the internalization rate and the faster the receptor recycling rate the more the receptor is retained at the membrane.
The target of experiment [3] is T1, human GLP1R (hGLP1R). Briefly: Human GLP1R cAMP agonist assay (GloSensor). The format is cell-based.
Target sequence in this assay (P43220 24-463): as above
Description: (§1) Compounds described herein were tested in the following cellular assays that measures the intracellular cAMP concentration. The cAMP is generated by the activation of GLP1R. EC50 is defined as the concentration of the compound that leads to half of the maximum response (after baseline correction).
The agonist activity of compounds was determined using the GloSensor™ cAMP Assay (Promega Corp.), which measures changes in the intracellular concentration of cAMP after ligand activation of GPCRs. The assay uses a biosensor encoded by pGloSensor™-22F cAMP plasmid (Promega, cat #E2301) with cAMP binding domains fused to a mutant form of Photinus pyralis luciferase. Binding to cAMP causes conformational changes that promote large increases in light output, which can be measured by a luminescence detector. […] The assay was started the following morning by adding an equal volume of CO2-independent media containing 4% v/v dilution of the GloSensor substrate (Promega, cat #E1291) to all wells. The cell plate was incubated at RT for 2 h in the dark. The Biomek i7 (Beckman Coulter) instrument was used for the liquid handling steps. To generate duplicate dose response curves, 3-fold serially diluted compounds were added in to the cell assay plate to a final volume of 60 μL with final concentrations ranging from 100 nM through 0.03 pM in CO2-independent media containing 0.1% BSA, 0.5 mM IBMX and 0.4% DMSO. […] Curve fitting for EC50 determinations was performed in the Helios module of the software package DAVID. The 4-parameter logistic model, Hill slope was used: y=Ainf+(A0−Ainf)/(1+(x/AC50)^Hill Slope), where y is the functional response; x is the compound concentration; A0 is the minimum value (at 0 dose); Ainf is the maximum value (at infinite dose); AC50 corresponds to the point of inflection (i.e., the point on the sigmoid shaped curve halfway between A0 and Ainf). The EC50 value was represented by the AC50 value calculated from Helios in μM. Emax is the maximal activity detected within the concentration range, derived from the fitted curve.
The HEK293-SNAP-hGLP1R stable cell clone that yielded the desired response was used for human GLP1R cAMP agonist assay.
In experiment [4] the target is T2, human GLP1R. Briefly: Human GLP1R DERET internalization assay. The format is cell-based.
In experiment [5] the target is cynomolgus GLP1 receptor (cynoGLP1R), on HEK293-cynoGLP1R F6 cells (cynomolgus) (UniProt F8V479). Nature of the experiment: cell-based or functional assay.
Experiment [6] in a line: Acute food intake study in DIO mice. The format is in vivo, C57BL/6 mice. The following applies: single s.c., 120 μg/kg.
Description: Males 24-30 weeks of age were used in the studies. Animals were housed one per cage in a normal light cycle (6:00 am-6:00 pm lights on, otherwise lights off) room, under an approved IACUC protocol. […] At the start of the study, food weight was recorded and animals were subcutaneously dosed with a test compound.
Experiment [7] concerns the target T3, mouse GLP1 receptor (mGLP1R) (Mus musculus, UniProt O35659).
T3 construct: host or cells: HEK293T CRE-Luc (called HEK293), clone C3
T3 sequence (O35659 22-463): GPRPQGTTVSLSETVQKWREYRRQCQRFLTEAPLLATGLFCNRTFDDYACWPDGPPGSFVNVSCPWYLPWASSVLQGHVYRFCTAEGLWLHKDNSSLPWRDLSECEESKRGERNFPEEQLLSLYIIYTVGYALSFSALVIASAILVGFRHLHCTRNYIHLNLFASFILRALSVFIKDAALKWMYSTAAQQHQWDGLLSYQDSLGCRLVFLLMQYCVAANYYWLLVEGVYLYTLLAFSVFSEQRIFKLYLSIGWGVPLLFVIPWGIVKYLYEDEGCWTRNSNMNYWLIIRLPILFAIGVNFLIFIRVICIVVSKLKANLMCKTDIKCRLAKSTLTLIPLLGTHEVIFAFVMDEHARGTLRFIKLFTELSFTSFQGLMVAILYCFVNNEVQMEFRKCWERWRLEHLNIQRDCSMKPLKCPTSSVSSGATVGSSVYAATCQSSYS
Nature of the experiment: Mouse GLP1R cAMP agonist assay. The format is cell-based. The conditions noted are these: percent of GLP1(7-36) EC100.
Description: as §1
The following day, cells were transfected as follows. The DNA complex was prepared as 0.020 μg/μL by adding 37 μg of plasmid DNA encoding mouse GLP1R cDNA (GeneCopoeia, cat #EX-Mm23901-M67; NCBI Reference Sequence: NM_021332.2) in 1758 μL Opti-MEM solution. Then, 112 μL of FuGENE® HD reagent were added to that by mixing carefully. After 5-10 min incubation at RT, 850 μL of DNA complex per well were added to the cells, and mixed thoroughly.

Experiment [8] can be described thus: Efficacy study: body weight loss in DIO mice. The format is in vivo, C57BL/6 mice. The conditions noted are these: s.c., 120 μg/kg QD, Day 30.
Description: Males 24-30 weeks of age were used in the studies (n=7/group). Animals were housed one per cage in a normal light cycle room, under an approved IACUC protocol. […] Compound(s) or vehicle were given QD or when indicated 03D (every 3 days). […] Body weight and food intake were measured daily.
Experiment [9] can be described thus: Tolerability assessment: emesis and FI in obese monkeys. The format is in vivo. The following applies: single dose s.c. 30 μg/kg.
Excerpt: Efficacy was defined as a reduction in FI and BW. Tolerability, assessed as reduced and/or absence of emesis and retained interest in a selection of fruits and vegetables and peanuts as treats.
Experiment [10] has as its target human GLP1R (hGLP1R) with a Prolink tag, on CHO-hGLP1R-β-arrestin cells (human, UniProt P43220 24-463). Nature of the experiment: cell-based or functional assay.
Experiment [11] addresses T4, human GLP1 receptor (hGLP1R) fused with a SNAP tag, on HEK293-SNAP-hGLP1R-GloSensor cells (human, UniProt P43220 24-463). Nature of the experiment: cell-based or functional assay.
For experiment [12], the target named is T5, mouse GLP1 receptor (mGLP1R), on HEK293-mGLP1R CRE-Luc (Clone C3) cells (mouse, UniProt O35659 22-463).
T5 sequence (looked up): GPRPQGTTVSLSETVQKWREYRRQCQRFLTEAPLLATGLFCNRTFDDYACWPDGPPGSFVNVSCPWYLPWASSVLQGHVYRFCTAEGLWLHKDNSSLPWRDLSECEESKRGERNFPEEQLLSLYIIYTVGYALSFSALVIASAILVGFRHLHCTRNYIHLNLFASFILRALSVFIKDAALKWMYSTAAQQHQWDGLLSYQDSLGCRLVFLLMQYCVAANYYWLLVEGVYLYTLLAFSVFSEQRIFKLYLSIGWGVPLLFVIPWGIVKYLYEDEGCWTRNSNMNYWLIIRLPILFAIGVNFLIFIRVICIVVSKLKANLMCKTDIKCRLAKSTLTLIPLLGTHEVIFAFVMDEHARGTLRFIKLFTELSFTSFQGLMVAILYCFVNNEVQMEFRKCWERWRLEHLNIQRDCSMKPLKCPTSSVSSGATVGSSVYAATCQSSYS
Briefly: cell-based or functional assay.

In experiment [13] the target is T4, human GLP1 receptor (hGLP1R) fused with …. Nature of the experiment: cell-based or functional assay. The source holds these as a separate data set.
Experiment [14] deals with cynomolgus GLP1 receptor (cynoGLP1R), on HEK293-cynoGLP1R F6 cells (cynomolgus, UniProt F8V479 24-463). Briefly: cell-based or functional assay.
Experiment [15] concerns the target T4, human GLP1 receptor (hGLP1R) fused with …. Briefly: cell-based or functional assay. The source holds these as a separate data set.
Setting [16] is: maximum receptor recycled as proportion of amount internalized.

The term Emax denotes the size of the effect at its maximum, as opposed to the concentration needed. In general, EC50 refers to the concentration needed to bring the measured effect to its halfway point. For the molecule `CC[C@H](C)[C@H](NC(=O)[C@H](Cc1ccccc1)NC(=O)[C@H](CCC(=O)O)NC(=O)[C@H](CCCCNC(=O)CCOCCOCCOCCOCCOCCOCCOCCOCCOCCOCCOCCOCCOCCOCCOCCOCCOCCOCCOCCOCCOCCOCCOCCOCCNC(=O)C(CCCCCCCCCCC(=O)O)(CCCCCCCCCCC(=O)O)C(=O)O)NC(=O)[C@H](C)NC(=O)[C@H](C)NC(=O)[C@H](CCC(N)=O)NC(=O)CNC(=O)[C@H](CCC(=O)O)NC(=O)[C@H](CC(C)C)NC(=O)[C@H](Cc1ccc(O)cc1)NC(=O)[C@H](CO)NC(=O)[C@H](CO)NC(=O)[C@@H](NC(=O)[C@H](CC(=O)O)NC(=O)[C@H](CO)NC(=O)[C@@H](NC(=O)[C@H](Cc1ccccc1)NC(=O)[C@@H](NC(=O)CNC(=O)[C@H](CCC(=O)O)NC(=O)C(C)(C)NC(=O)[C@@H](N)Cc1c[nH]cn1)[C@@H](C)O)[C@@H](C)O)C(C)C)C(=O)N[C@@H](C)C(=O)N[C@@H](Cc1c[nH]c2ccccc12)C(=O)N[C@@H](CC(C)C)C(=O)N[C@H](C(=O)N[C@@H](CCCNC(=N)N)C(=O)NCC(=O)N[C@@H](CCCNC(=N)N)C(=O)NCC(=O)O)C(C)C` [Compound 6], the Emax turned out to be 75% at human GLP1R (hGLP1R) [1], 111% at human GLP1R (hGLP1R) [3] and 92% at human GLP1R [4]. In addition, the EC50 on human GLP1R (hGLP1R) [1] (CHO-hGLP1R-β-arrestin cells) was found to be 70 nM. Moreover, the Receptor recycled mean at human GLP1R [2] (setting [16]) is given as 70%. The T1/2 mean on human GLP1R [2] (rate at which receptor recycled back to the membrane after Exendin 9-39) turned out to be 1.15 h.
In experiment [5], “GLP1(7-36) peptide (from UniProt P01275 98-127) (ligand)” registered a cynoGLP1R cAMP assay (HTRF): EC50 mean of 0.0217 nM and a cynoGLP1R cAMP assay (HTRF): Emax mean, % of GLP1(7-36) of 100%.
Regarding `CCCCCCCCCCCC(CCCCCCCCCCC(=O)O)(C(=O)O)C(=O)NCCOCCOCCOCCOCCOCCOCCOCCOCCC(=O)NCCCC[C@H](NC(=O)[C@H](C)NC(=O)[C@H](C)NC(=O)[C@H](CCC(N)=O)NC(=O)CNC(=O)[C@H](CCC(=O)O)NC(=O)[C@H](CC(C)C)NC(=O)[C@H](Cc1ccc(O)cc1)NC(=O)[C@H](CO)NC(=O)[C@H](CO)NC(=O)[C@@H](NC(=O)[C@H](CC(=O)O)NC(=O)[C@H](CO)NC(=O)[C@@H](NC(=O)[C@H](Cc1ccccc1)NC(=O)[C@@H](NC(=O)CNC(=O)[C@H](CCC(=O)O)NC(=O)C(C)(C)NC(=O)[C@@H](N)Cc1c[nH]cn1)[C@@H](C)O)[C@@H](C)O)C(C)C)C(=O)N[C@@H](CCC(=O)O)C(=O)N[C@@H](Cc1ccccc1)C(=O)N[C@H](C(=O)N[C@@H](C)C(=O)N[C@@H](Cc1c[nH]c2ccccc12)C(=O)N[C@@H](CC(C)C)C(=O)N[C@H](C(=O)N[C@@H](CCCNC(=N)N)C(=O)NCC(=O)N[C@@H](CCCNC(=N)N)C(=O)NCC(=O)O)C(C)C)[C@@H](C)CC` (stereo partly shown) [Compound 4], the values for the Emax on human GLP1R (hGLP1R) [1], on human GLP1R (hGLP1R) [3] and at human GLP1R [4] were 84%, 119% and 100%, respectively. Besides, at human GLP1R [2] (setting [16]), the Receptor recycled mean was determined as 65%.
For the molecule semaglutide, the “FI @ 24 h” value in experiment [6] is reported as −86 ± 1 % baseline. Further, in experiment [7], the Emax mean was 106%. In experiment [8], the Weight loss was −17.8 ± 1.2 % baseline. On human GLP1R [2], this molecule gave a Receptor recycled mean of 64% and a T1/2 mean of 1.677 h. The same molecule gave an Emax mean on human GLP1R [4] of 91%. The FI reduction observed entry in experiment [9] was “Yes”.
Take semaglutide acetate salt (peptide): the cynoGLP1R cAMP assay (HTRF): EC50 mean in experiment [5] was 0.0491 nM.

B1: Compound 6 (peptide)
peptide: HXEGTFTSDVSSYLEGQAAKEFIAWLVRGRG
modifications: Aib at position 8 (GLP-1 numbering); side-chain NH of the Lys residue acylated, via a PEG24 linker, with the 11-carbamoyl-henicosane-1,11,21-tricarboxylic acid moiety (from NHS ester Intermediate 29)
Take B1: the “β-arrestin recruitment (PathHunter): EC50 mean” value in experiment [10] came to 70 nM. In experiment [11], the “hGLP1R cAMP assay (GloSensor): EC50 mean” value was determined as 0.00573 nM. The “mGLP1R cAMP assay (HTRF): EC50 mean” value in [12] is 0.034 nM.

B2: Compound 1 (Diastereomeric Mixture) (peptide)
peptide: HXEGTFTSDVSSYLEGQAAKEFIAWLVRGRG
modifications: Aib at position 8 (GLP-1 numbering); side-chain NH of the Lys residue acylated, via a PEG24 linker, with 2-undecyltridecanedioic acid (from NHS ester Intermediate 6); diastereomeric mixture at the quaternary carbon of the fatty acid
B2: the “β-arrestin recruitment (PathHunter): EC50 mean” value in experiment [10] was 192 nM. Besides, in experiment [11], the “hGLP1R cAMP assay (GloSensor): Emax mean, % of GLP1(7-36)” value was found to be 105%.

B3: Compound 9 (peptide)
peptide: HXEGTFTSDVSSYLEGQAAKEFIAWLVRGRG
modifications: Aib at position 8 (GLP-1 numbering); side-chain NH of the Lys residue acylated, via a PEG24 linker, with the 15-carbamoyl-nonacosane-1,15,29-tricarboxylic acid moiety (from NHS ester Intermediate 50)
Regarding B3, the “receptor internalization (DERET): Emax mean, % of GLP1(7-36)” value in experiment [13] was 22%. Besides, in [10], the “β-arrestin recruitment (PathHunter): EC50 mean” value is above 2000 nM and the “β-arrestin recruitment (PathHunter): Emax mean, % of GLP1(7-36)” value is 37%. Besides, the “mGLP1R cAMP assay (HTRF): EC50 mean” value in experiment [12] came to 0.686 nM.

B4: Compound 3: Diastereomer 2 (peptide)
peptide: HXEGTFTSDVSSYLEGQAAKEFIAWLVRGRG
modifications: Aib at position 8 (GLP-1 numbering); side-chain NH of the Lys residue acylated, via a PEG24 linker, with (R)-2-undecyltridecanedioic acid (from NHS ester Intermediate 15B, R-enantiomer)
Turning to B4, the “receptor internalization (DERET): EC50 mean” value in experiment [13] was 372 nM.

B5: Compound 5 (peptide)
peptide: HXEGTFTSDVSSYLEGQAAKEFIAWLVRGRG
modifications: Aib at position 8 (GLP-1 numbering); side-chain NH of the Lys residue acylated, via a PEG2 linker, with 2-undecyltridecanedioic acid (from NHS ester Intermediate 22)
As to B5, in [14], the “cynoGLP1R cAMP assay (HTRF): EC50 mean” value is 0.577 nM and the “cynoGLP1R cAMP assay (HTRF): Emax mean, % of GLP1(7-36)” value amounted to 103%. The “receptor recycling (DERET, after Exendin 9-39): T1/2 mean” value in experiment [15] stood at 2.25 h.

B6: Compound 2: Diastereomer 1 (peptide)
peptide: HXEGTFTSDVSSYLEGQAAKEFIAWLVRGRG
modifications: Aib at position 8 (GLP-1 numbering); side-chain NH of the Lys residue acylated, via a PEG24 linker, with (S)-2-undecyltridecanedioic acid (from NHS ester Intermediate 15A, S-enantiomer)
B6: the “receptor internalization (DERET): EC50 mean” value in experiment [13] was 331 nM. Moreover, the “β-arrestin recruitment (PathHunter): EC50 mean” value in experiment [10] worked out at 133 nM.

B7: Compound 7 (peptide)
peptide: HXEGTFTSDVSSYLEGQAAKEFIAWLVRGRG
modifications: Aib at position 8 (GLP-1 numbering); side-chain NH of the Lys residue acylated, via a PEG24 linker, with the 12-carbamoyl-tricosane-1,12,23-tricarboxylic acid moiety (from NHS ester Intermediate 36)
In the case of B7, the “receptor internalization (DERET): EC50 mean” value in [13] was 367 nM. The “β-arrestin recruitment (PathHunter): EC50 mean” value in experiment [10] was 178 nM.

B8: Compound 4 (peptide)
peptide: HXEGTFTSDVSSYLEGQAAKEFIAWLVRGRG
modifications: Aib at position 8 (GLP-1 numbering); side-chain NH of the Lys residue acylated, via a PEG8 linker, with 2-undecyltridecanedioic acid (from NHS ester Intermediate 19)
As for B8, the “β-arrestin recruitment (PathHunter): EC50 mean” value in [10] is 235 nM. In experiment [12], the “mGLP1R cAMP assay (HTRF): EC50 mean” value stood at 0.428 nM.

B9: Compound 8 (peptide)
peptide: HXEGTFTSDVSSYLEGQAAKEFIAWLVRGRG
modifications: Aib at position 8 (GLP-1 numbering); side-chain NH of the Lys residue acylated, via a PEG24 linker, with the 14-carbamoyl-heptacosane-1,14,27-tricarboxylic acid moiety (from NHS ester Intermediate 43)
With B9, the “hGLP1R cAMP assay (GloSensor): EC50 mean” value in experiment [11] worked out at 0.105 nM.
